According to article PMC10769878:

Target: phi3T_93 (Bacillus subtilis phage phi3T)
Experiment: SEC-MALS; 20 µl at 1 mg/ml on Shodex KW-402.5-4F, 100 mM HEPES pH 7.5, 250 mM NaCl, 0.3 ml/min

- stoichiometry N: 2
Substance: phi3T_93 (natural protein)
